The results in this text go back to the nanobody polyreactivity screen of Harvey et al. (2022).

The nature of the series: yeast display, Sf9 membrane polyspecificity reagent, FACS + sequencing; frameworks hold sequencing errors. The procedure, abridged: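 A synthetic nanobody library was expressed on Saccharomyces cerevisiae BJ5465 by galactose induction for 36–48 hours. The library was stained for 1 hour at 4 °C with 10% biotinylated, detergent-solubilized Sf9 membrane reagent and enriched with streptavidin microbeads before FACS. Low and high (top ~1%) gates were set on anti-HA fluorescence for expression and streptavidin fluorescence for reagent binding, and each polyreactivity label reflects the gate of origin.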
Turning to “QVQLVESGGGLVQAGGSLRLSCAASGSTFLSNAMGWYRQAPGKERELVAAITTSGTSTFYADSVKGRFTISRDNAKNTVYLQMNSLKPEDTAVYCAKDYLPYLHFVAPSTGDYDYWGQGTQVTVSS”, the “polyreactivity (PSR sort gate)” value is “low polyreactivity”. Take “QVQLVESGGGLVQAGGSLRLSCAASGSISSKNAMGWYRQAPGKEREFVAVISGTGGSTYYADSVKGRFTISRDNAKNTVYLQMNSLKPEDTAFYYCAAAASSIVSYGYTWTYGYWGQGTQVTVSS”: the “polyreactivity (PSR sort gate)” value is “low polyreactivity”. On to “QVQLVESGGGLVQAGGSLRLSCAASGFIFSIYAMGWYRQAPGKERELVAAISKSGGRTYYADSVKGRFTISRDNAKNTVYLQMNSLKPEDTAVYYCAVDSYYKYDYWGQGTQVTVSS”, for which the “polyreactivity (PSR sort gate)” value was “high polyreactivity”. “QVQLVESGGGLVQAGGSHRLSCAASGSTFGQNAMGCYRQAPGKERELVAAITRRGVSTYYADSVKGRFTISRDNAKNTVYLQMNSLKPEDTAVYYCAKRYHPNSPYDYWGQGTQVTVSS”: the “polyreactivity (PSR sort gate)” value is reported as “low polyreactivity”. On to “QVQLVESGGGLVQAGGSLRLSCAASGSIYASNTMGWYRQAPGKERELVAGITKIGSSTYYADSVKGRFTISRDNAKNTVYLQMNSLKPEDTAVYYCNAYGPNIYSSRYDYWGQGTQVTVSS”, for which the “polyreactivity (PSR sort gate)” value is “low polyreactivity”. “QVQLVESGGGLVQAGGSLRLSCAASGRTFQYNAMGWYRQAPGKERELVAAISSYGGSTYYADSVKGRFTISRDNAKNTVYLQMNSLKPEDTAVYYCNAYSQSWNFYGDGDDWGQGTQVTVSS”: the “polyreactivity (PSR sort gate)” value is recorded as “low polyreactivity”.

In the case of “QDQLVESGGGLVQAGGSLRLSCAASGRIFQANAMGWYRQAPGKERELVASISSGGSTNYADSVKGRFTISRDNAKNTVYLQMNRLKPEDTAVYYCAARHPSSAYWVGYYWYDYWGQGTQVTVSS”, the “polyreactivity (PSR sort gate)” value is on record as “low polyreactivity”. Turning to “QVQLVESGGGLVQAGGSLRLSCAASGYTFFFYAMGWYRQAPGKEREFVAAITWRGDSTYYADSVKGRFTISRDNAKNTVYLQMNSLKPEDTAVYYCAADPGFTWSRRMDYWGQGTQVTVSS”, the “polyreactivity (PSR sort gate)” value is given as “low polyreactivity”. Take “HVQLQESGGGLVQAGGSLRQSCAASGYIFPYYSMGLYRQAPGKERGLVACIAAGTTTNYADSVKGRFTISRDNAKNTVYLQMNSLKPEDAAVYYCAALNAFNTGHWYWGQGTQVTVSS”: the “polyreactivity (PSR sort gate)” value is listed as “low polyreactivity”. Then “QVQLVESGGGLVQAGGSLRLSCAASGSILARNAMGWYRQAPGKERELVAAISNSGSTNYADSVKGRFTISRDNAKNTVYLQMNSLKPEDPAGYYCAKDADHGWFEYDYWGQGTQVTVSS”, with “low polyreactivity”; and “QVQLVESGGGLVQAGGRLRLSCAASGRTLYRYAMGWYRQAPGKERELVATIRRSGGSTNYADSVKGRFTISRDNAKNTVYLQMNSLKPEDTAVYYCAAVSFKPEYYYWGQGTQVTVSS”, with “high polyreactivity”; and “QVQIVESGGGLVQAGGSHRLSCAASGSTFASNTKGWYTQAPGKERELVATITQSGGTRYYADSVKGRFTISRDNAKYTVYFQMNSLKPEDTAVYDCATDVGYFYTVVGGYDYWGQGTQVTVSA”, with “low polyreactivity”.

As for “QVQLVESGGGLVQAGGSLRLSCAASGRIFSYNAMGLYRPAPVKERELFAAITFSGGGTYYADSVKGRFTISRDNAKNTVYLQMKSLKPEDTAVYYCNKVSYGYSTYGYWGQGTQVTVSS”, the “polyreactivity (PSR sort gate)” value was “low polyreactivity”.

Regarding “QVQLVESGGGLVQAGGSLSLTCAAYGRTITRYVMGWYRQAPGKERELVAYISRGGSTNYADSVKGRFTISRDNAKNTVYLQMNSLKPEDSAVYYCAARFSWGGYYSTTYPLTHDYWGQGTQVNVSS”, the “polyreactivity (PSR sort gate)” value was “high polyreactivity”.

For “QDQLVESGGGLVQAGGSLRLSCAGSGSILDGNAMLWYRQAPGKERELVAGISGDSGSTYYADSVKGRFTISRDNAKNTVYLQMNSLKPEDTAVDYCAVTWGARTDQWPLRVFVGHDYWGQGTQLTVSS”, the “polyreactivity (PSR sort gate)” value is given as “low polyreactivity”. Regarding “QVQLVESGGGLVQAGGSLRLSCAASGFLFVVYTMGWYRQAPGKERELVAAITSGGSTYYADSVKGRFTISRDNAKNTVYLQMNSLKPEDTAVYYCNALASRYPAYYYWGQGTQVTVSS”, the “polyreactivity (PSR sort gate)” value is recorded as “low polyreactivity”. For “QVQLVESGGGLVQAGGSLRLSCAASGFTFAHYAMGWYRPAPGKERELVAAISGSGSSTYYADSVKGRFTISRDYAKNSVYLKMNSLKPEDTAVYYCNVRWYFLYYYWGQGTQVTVSS”, the “polyreactivity (PSR sort gate)” value is recorded as “low polyreactivity”. For “QVQLVESGGGLVQAGGSLRLSCAASGRTFYFNTMGWYRQAPGKERELVATISWSGGRTYYADSVKGRFTISRDNAKNTVYLQMNSLKPEDTAVYYCAAVRYRGFDYWGQGTQVTVSS”, the “polyreactivity (PSR sort gate)” value is given as “high polyreactivity”. In the case of “QVQLVESGGGLVQAGGSLRLSCAASGRTFDSYAMGWYRQAPGKERELVAAIYADSVKGRFTISRDNAKNTVYLQMNSLKPEDTAVYYCAARDPSRHARRAYDYWGQGTQVTVSS”, the “polyreactivity (PSR sort gate)” value was “low polyreactivity”. As for “QVQLVESGGGLVQAGGSLRLSCAASGFIFYRYTMGWYRQAPGKERELVASISSGGSTNYADSVKGRFTISRDNAKNTVYLQMNSLKPEDTAVYYCAASRFRWVQRYDYWGQGTQVTVSS”, the “polyreactivity (PSR sort gate)” value was “high polyreactivity”. Turning to “QVQLVESGGGLVQAGGSLRLSCAASGSIIDVYAMGWYRQAPGKERELVAAISTSGGSTFYADSVKGRFTISRDHAKNTVYLQMNSLKPEDTAVYYCNAAKYPDQWYDEYNYWGQGTQVTVSS”, the “polyreactivity (PSR sort gate)” value is “low polyreactivity”.

For “QVQLVESGGGLVQAGGSLRLSCAASGIIFSYYAMGWYRQAPGKERELVAAITSGGGSTYYADSVKGRFTISRDNAKNTVYLQMNSLKPEDTAVYYCAADYNRELGRKFEYWGQGSQVTVSS”, the “polyreactivity (PSR sort gate)” value is on record as “high polyreactivity”. As for “QVQLEESGLGLVQAGGSLRLSCAASGFTFYGNAMGSYRKAPGKEREFVAAISSSGASTRYADSVKGRFTISRDNAKNTVYLQMYSLKPEDTAVYYCAADAPAWILEAYGYWGQGTQVTVSS”, the “polyreactivity (PSR sort gate)” value was “low polyreactivity”. On to “QVQLVESGGGLVQAGGSLRLSCAASGSIFFGYAMGSYRQAPGKERELVAAISTRGGSTYYADSVKGRFTISRDNAKNTFYLQMNSLKPEDTAVYYSAADYLDSTYGYVYGWDDYWGQGTQVTVSS”, for which the “polyreactivity (PSR sort gate)” value is listed as “low polyreactivity”.

As for “QVQLVESGGGLVQAGRSLRISCAASGRIFYYNDMGRYRQAPGKERELVAAITWTDDGTYYADSVKARFTISRDNAKNTVYLQMNSLKPEVTAVYYCAAESFYGFEYWGQGTQLTVSS”, the “polyreactivity (PSR sort gate)” value is “low polyreactivity”.

Take “QVQLQESGGGLVQEGGSLRLSCSASGNISPPADMGWSRQAPGKERELVASIGTGGTTNYADSVKGRFTISRDNAKNTVYLQMNSLKPDDTAVYYCAAGRYEYNPYDYWGQGTQVTVSS”: the “polyreactivity (PSR sort gate)” value was “low polyreactivity”. In the case of “QVQLVESGGGLVQAGGSLRLSCAASGRIFDTNFIGWYRLAPGKERELVAANSQSGGITYYADSVKGRFTISRDNAKKTVYLQMNSLKPEDTAVYYCAKDTVTVSFNEYDYWGQGTQVTVSS”, the “polyreactivity (PSR sort gate)” value is given as “low polyreactivity”.

As to “QVQLEESGGGFVQAGGSLRLSCAASGSIFYYYVMGLYRQAAGKERELVAALTNSDRTYYADSVKGRFTISRDNAKNTVYLQMTSLKPEDTAVYYCAADYYWSPYYVYQFDYWGQGTQVTVSS”, the “polyreactivity (PSR sort gate)” value is on record as “low polyreactivity”.

Regarding “QVHLVESGGGLVQAGGSLRLSCADSGFIFWSYVMGWNRQAPGKESELVAAIDYSGASTYYADSVKGRFTISRDNAKNTVSLQMNSLKPEDTAVYYCNAVAYYPYGYDYWGQGTQVTVSS”, the “polyreactivity (PSR sort gate)” value is “low polyreactivity”. For “QVQLVESGGGLVQAGGSLRLSCAASGITFGDYAMGWNRQAPGKERELVAGINWSGDGTYYADSVKGRFTISRDNAKITVYLQMYSLKPEDTAVYYCAAETFYDYGGYDYWGQVTQVTVSS”, the “polyreactivity (PSR sort gate)” value is recorded as “low polyreactivity”.

Take “QVQLVESGGGLVQAGGSLRLSCAASGSIFPIYAMGWYRQAPRKERELVAAISGSGARTYYADSVKGRFTISRDNAKNTVYLQMNSLKPEDTAVYYCNAKYGYDSEARIVKPVRYDYWGQGTQVTVSS”: the “polyreactivity (PSR sort gate)” value is on record as “high polyreactivity”. “QVQLVESVGGLVQAGGSLRLICACSGLNFVSYAMGWYRQAPGKERELVAAINSRGSRTYYADSVKGRLTISRDNAKNTVYLQMNSLKPEDTALYYCAAGVIRYGGKEEYYYWGQGTQVTVSS”: the “polyreactivity (PSR sort gate)” value is listed as “high polyreactivity”. Under “QVQLVESGGGLVQAGGSLRLSCAASGITFSRNVMGWYRQAPGKERELVAAISRSGGRTYYADSVKGRFTISRDNAKNTVYLQMNSLKPEDTAVYDCNRDIGGTSVLDDYWGQGTQVTVSS” stands “low polyreactivity”; under “QVQLVESGGGLVQAGGSLRLSCAASGSIFLWNAMGWYRQAPGKERELVAAISSSGGSTYYADSVKGRFTISRDNAKNTVYLQMNSLKPEDTAVYYCAAVSRSYYNSYNYWGQGTQVTVSS”, “high polyreactivity”; under “QVQLVESGGGLVQAGGSLRLSCAASGFTFGIYAMGWYRQAPGKERELVAAINVSDGSTYYADSVKGRFTISRDNAKNTVYLQMNILKPEDTAVYYCAAYLYVTIYTSYREYDYWGQGTQVTVSS”, “low polyreactivity”. Turning to “QVQLVESGGGLVQEGGSLRISCASSGFIFASYAMAWYIQAPGKERELVAAITQSGGITYYADSVKERFTISRDNAKYTVYLQMNSLKPEDTAVFYCNTPLLKRTTRCRERNYWGQGTQVTVSS”, the “polyreactivity (PSR sort gate)” value is reported as “low polyreactivity”. As for “QVQLVESGGGLVQAGGSLRLSCAASGRIFSGYAMGWYRQAPGKEMELVAAISNSGASTYYADSVKGRFTISRDNAKNTVYLQMNSLKPEDTAVYYCAASGRVYSSGYDYWGQGTQVTVSS”, the “polyreactivity (PSR sort gate)” value is given as “high polyreactivity”. Turning to “QVQLVESGGGLVHAGGSLRLSCAASGSIFTDYAMGWYRQAPGKERELVAVIDIDGSTYYADSVKGRFTISRDNEKNSVYLQMNSLKPEDTAVYYCAAGYTYYSLYGYWGQGTQVTVSS”, the “polyreactivity (PSR sort gate)” value was “low polyreactivity”.

On to “QDQLVESGGGLVQAGGSLRLSCAASGRTFDTNAMGWYRQAPGKERELVASISWSTGSTYYADSVKGRFTISRDNAKNTVYLQMNSLKPEDTAVYYCAARKWFRYKGRSRDYWGQGTQVTVSS”, for which the “polyreactivity (PSR sort gate)” value is “high polyreactivity”. As to “QVQLVESLVGLDQAGGSLRLSCSASGFTIPRYAMGWSRQAHGKESELVAAITSGGSTYYADSVKGRFTISRDNAKNNVYLQMNSLKTEVTAVYFCAADGLCGSRFYSWGLGTQVTVSS”, the “polyreactivity (PSR sort gate)” value is listed as “high polyreactivity”. Consider “QVQLVESGGGLVQAGGSLRLSCAASGSTFKRNAMGWYRQAPGKERELVASISKRGGSTYYADSVKGRFTISRDNAKNTVYLQMNSLKPEDTAVYYCAKTWQNGDRNTIGSVYAYYSWGQGTQVTVSS”, for which the “polyreactivity (PSR sort gate)” value is “high polyreactivity”.
